Target: the molecule itself
Test: native gel or EMSA; Native PAGE of the 25 µl PURE cell-free expression reaction with FluoroTect GreenLys fluorescent detection, compared to a no plasmid DNA control

B1: Arabidopsis thaliana Pyridoxal 5'-phosphate synthase-like subunit PDX1.2 (natural protein, UniProt Q9ZNR6 1-314, looked up)
chain: MADQAMTDQDQGAVTLYSGTAITDAKKNHPFSVKVGLAQVLRGGAIVEVSSVNQAKLAESAGACSVIVSDPVRSRGGVRRMPDPVLIKEVKRAVSVPVMARARVGHFVEAQILESLAVDYIDESEIISVADDDHFINKHNFRSPFICGCRDTGEALRRIREGAAMIRIQGDLTATGNIAETVKNVRSLMGEVRVLNNMDDDEVFTFAKKISAPYDLVAQTKQMGRVPVVQFASGGITTPADAALMMQLGCDGVFVGSEVFDGPDPFKKLRSIVQAVQHYNDPHVLAEMSSGLENAMESLNVRGDRIQDFGQGSV
modifications: translation mixture supplemented with FluoroTect GreenLys reagent (fluorescent detection)
notes: Pyridoxal 5'-phosphate synthase-like subunit PDX1.2 of Arabidopsis thaliana, Uniprot Q9ZNR6; synthetic gene (Genscript) in the pT7-DHFR Control plasmid in place of DHFR (NdeI/NotI); source: PURE (PureExpress In Vitro Protein Synthesis kit, New England Biolabs) cell-free expression, 25 µl reaction; in crude lysate or after small-scale clean-up (spin filter, benzonase, reverse His-purification); …
stoichiometry N: 12
